According to US20120245099A1, “APOPTOSIS INDUCER” (NIHON UNIVERSITY, priority 2009, published 2012):

Experiments:
Format in all cases: cell-based
[1] = system: P5 cells (vascular endothelial cell line); experiment: AP-Del-1 conditioned medium added to cells, H33342 and C3-annexin V staining (Example 5); conditions: conditioned medium of Cos cells with AP fusion protein, 24 hours after addition
Protocol: (§1) cDNA for full-length Del-1 (SEQ ID NO: 4) was integrated into an alkaline phosphatase (AP) expression vector (APtag4) and then introduced into cultured Cos cells. As a control, an AP expression vector free from the cDNA for full-length Del-1 was used. The resulting culture supernatant was measured for AP activity, normalized for AP fusion protein concentration and then added to a culture of CRL cells (human melanoma cells) or P5 cells (vascular endothelial cell line) (instead of using direct gene transfer, Cos cells were allowed to produce a recombinant protein and the resulting conditioned medium was used, because CRL and P5 were low in the efficiency of gene transfer). At 24 hours after addition, the cells were stained with H33342 and with C3-annexin V for observation.

[2] = system: CRL cells (human melanoma cells); experiment: as above; conditions: conditioned medium of Cos cells with AP fusion protein, 24 hours after addition
Protocol: as §1

[3] = system: Cos cells; experiment: Del-1 gene transfer into cultured Cos cells, chromosomal DNA electrophoresis and silver staining (Example 2); conditions: Cos cells forced to express Del-1 (pcDNA3)
From the text: cDNA for full-length Del-1 (SEQ ID NO: 4) was integrated into an expression vector, pcDNA3 (Invitrogen), and then introduced into cultured Cos cells. As a control, pcDNA3 free from the cDNA for full-length Del-1 was used. For normalization of the gene transfer rate, DNA carrying the LacZ gene was also introduced simultaneously. The results obtained are shown in FIG. 2 (left and right panels).
Left panel: Chromosomal DNAs were taken from the cells and electrophoresed on a polyacrylamide gel, followed by silver staining.

[4] = system: Cos cells; experiment: eGFP-Del-1 expression vector in cultured Cos cells, H33342 staining (Example 4); conditions: expressed as eGFP-Del-1 fusion protein, 24 hours after gene transfer
Protocol: An expression vector designed to carry cDNA encoding eGFP-Del-1 (a fusion protein between eGFP and full-length Del-1) was introduced into cultured Cos cells. At 24 hours after gene transfer, the cells were fixed and stained with H33342.
This would mean that Del-1 secreted from the cells receiving Del-1 gene transfer would also act on their adjacent cells to thereby induce apoptosis in these cells.

[5] = system: Cos cells; experiment: LDH activity in supernatant of Cos cells transformed with cDNA for Del-1 or its parts (Example 7); conditions: APtag4 vector, medium replaced 24 hours after gene transfer, measured after further one hour
From the text: cDNA for full-length Del-1 (SEQ ID NO: 4) was integrated into an AP expression vector (APtag4) and then introduced into cultured Cos cells. Likewise, cDNA for a part of Del-1 was also integrated into APtag4 and then introduced into cultured Cos cells. As a control, an AP expression vector free from the above cDNA for full-length Del-1 or a part thereof was used. It should be noted that the members each used as a part of Del-1 were EGF-like domains in the full-length Del-1 protein, i.e., EGF1 (E1; cDNA: SEQ ID NO: 26, amino acid sequence: SEQ ID NO: 27), EGF2 (E2; cDNA: SEQ ID NO: 28, amino acid sequence: SEQ ID NO: 29) and EGF3 (E3; cDNA: SEQ ID NO: 6, amino acid sequence: SEQ ID NO: 7), a fusion protein between discoidin I-like domains, i.e., Discoidin1 and Discoidin2 (C1C2; cDNA: SEQ ID NO: 30, amino acid sequence: SEQ ID NO: 31), an amino acid substitution (D136E) mutant of the above full-length Del-1 (Del1m; cDNA: SEQ ID NO: 32, amino acid sequence: SEQ ID NO: 33), as well as an amino acid substitution (D136E) mutant of E3, i.e., E3 D136E (E3m; cDNA: SEQ ID NO: 34, amino acid sequence: SEQ ID NO: 35). […] At 24 hours after gene transfer, the medium in each case was replaced with fresh culture medium and, after further one hour, the supernatant was measured for LDH activity. A cell lysate was prepared for each case and measured for LacZ activity. […]

[6] = system: Cos cells; experiment: Del-1 gene transfer into cultured Cos cells, H33342 nuclear staining, phase contrast and fluorescent microscopy (Example 1); conditions: 24 hours after gene transfer of cDNA in pcDNA3
Protocol: cDNA for full-length Del-1 (SEQ ID NO: 4) was integrated into an expression vector, pcDNA3 (Invitrogen), and then introduced into cultured Cos cells. As a control, pcDNA3 free from the cDNA for full-length Del-1 was used. At 24 hours after gene transfer, the cells were stained with H33342 (Hoechst) for cell nuclear staining and observed under a phase contrast microscope (transmission image) and a fluorescent microscope (H33342).

[7] = system: P5 cells (vascular endothelial cell line); experiment: AP-Del-1 conditioned medium added to cells, chromosomal DNA electrophoresis and silver staining (Example 6); conditions: 24 hours after addition
Protocol: as §1, with “AP” for “alkaline phosphatase (AP)”, “addition, chromosomal DNAs were taken from” for “addition,”, “cells” for “cells were stained with H33342”, “electrophoresed on a polyacrylamide gel, followed by silver staining.” for “with C3-annexin V for observation.”

[8] = system: CRL cells (human melanoma cells); experiment: as above; conditions: 24 hours after addition
Protocol: as §1, with “AP” for “alkaline phosphatase (AP)”, “addition, chromosomal DNAs were taken from” for “addition,”, “cells” for “cells were stained with H33342”, “electrophoresed on a polyacrylamide gel, followed by silver staining.” for “with C3-annexin V for observation.”

[9] = system: Cos cells; experiment: Del-1 gene transfer into cultured Cos cells, H33342 and C3-annexin V staining (Example 3); conditions: 24 hours after gene transfer
Protocol: cDNA for full-length Del-1 (SEQ ID NO: 4) was integrated into an expression vector and then introduced into cultured Cos cells. At 24 hours after gene transfer, the cells were stained with H33342 and with C3-annexin V (annexin V conjugated with the fluorescent dye C3) and then observed under a fluorescent microscope.
It should be noted that annexin V is capable of binding to phosphatidylserine, a component of cell membranes, while phosphatidylserine is known to leak (to be localized) outside of the cell membrane when the cells undergo apoptosis.

B1: full-length Del-1: developmentally regulated endothelial cell locus-1 protein, extracellular matrix protein, amino acid sequence SEQ ID NO: 5 (protein, listed as Mus musculus)
chain: MKHLVAAWLLVGLSLGVPQFGKGDICNPNPCENGGICLSGLADDSFSCECPEGFAGPNCSSVVEVASDEEKPTSAGPCIPNPCHNGGTCEISEAYRGDTFIGYVCKCPRGFNGIHCQHNINECEAEPCRNGGICTDLVANYSCECPGEFMGRNCQYKCSGPLGIEGGIISNQQITASSTHRALFGLRKWYPYYARLNKKGLINAWTAAENDRWPWIQINLQRKMRVTGVITQGAKRIGSPEYIKSYKIAYSNDGKTWAMYKVKGTNEEMVFRGNVDNNTPYANSFTPPIKAQYVRLYPQICRRHCTLRMELLGCELSGCSEPLGMKSGHIQDYQITASSVFRTLNMDMFTWEPRKARLDKQGKVNAWTSGHNDQSQWLQVDLLVPTKVTGIITQGAKDFGHVQFVGSYKLAYSNDGEHWMVHQDEKQRKDKVFQGNFDNDTHRKNVIDPPIYARFIRILPWSWYGRITLRSELLGCAEEE
Q: For B1, which “apoptosis by H33342 and C3-annexin V staining” value [1] is on record?
A: The value was “these cells underwent apoptosis”.

Q: And the “apoptosis by H33342 and C3-annexin V staining” value [2]?
A: Its value is “these cells underwent apoptosis”.

Q: And the “DNA ladder pattern indicative of apoptosis” value (from here on “DNA ladder pattern indicative”) [3]?
A: Its value is “ladder pattern indicative of apoptosis was observed”.

Q: And the “apoptosis (chromosomal aggregation, H33342) in cells expressing the fusion protein” value [4]?
A: The value was “found to undergo apoptosis”.

Q: What about the “increase in LDH activity of supernatant, normalized by LacZ activity” value [5] of the same molecule?
A: Its value is “increase in LDH activity”.

Q: And the “chromosome aggregation (H33342 nuclear staining)” value [6]?
A: The value was “chromosomes were aggregated”.

Q: And the “DNA ladder pattern indicative” value [7]?
A: Its value is “ladder pattern indicative of apoptosis was observed”.

Q: What about the “DNA ladder pattern indicative” value [8] of the same molecule?
A: Its value is “ladder pattern indicative of apoptosis was observed”.

Q: What about the “apoptosis by H33342 and C3-annexin V staining” value [9] of the same molecule?
A: Its value is “these cells underwent apoptosis”.
